# Reference: PMC3605307
# Positions count from the first letter of the chain named. In names and notes the source's numbering stands.
# T1: Recombinant UL141 ectodomain (soluble, released from the Fc fusion), Q6RJQ3
# T1 chain: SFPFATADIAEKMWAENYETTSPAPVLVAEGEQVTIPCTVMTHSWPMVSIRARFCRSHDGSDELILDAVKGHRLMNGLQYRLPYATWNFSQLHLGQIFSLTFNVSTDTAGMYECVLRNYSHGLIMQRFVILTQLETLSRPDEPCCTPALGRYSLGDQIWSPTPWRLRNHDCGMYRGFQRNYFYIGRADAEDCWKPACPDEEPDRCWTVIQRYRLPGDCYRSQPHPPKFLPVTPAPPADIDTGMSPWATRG
# B1: Human TRAIL-R2-Fc fusion protein (wild type), O14763 M152A; R154A; K155A (protein)
# chain: QQDLAPQQRAAPQQKRSSPSEGLCPPGHHISEDGRDCISCKYGQDYSTHWNDLLFCLRCTRCDSGEVELSPCTTTRNTVCQCEEGTFREEDSPEACAACRTGCPRGMVKVGDCTPWSDIECVHKESG
# B2: Human TRAIL-R2-Fc fusion protein (wild type), O14763 K155A (protein)
# chain: B1 chain with A95M, A97R
# B3: Human TRAIL-R2-Fc fusion protein (wild type), O14763 P150A (protein)
# chain: B1 chain with P93A, A95M, A97R, A98K
# B4: Human TRAIL-R2-Fc fusion protein (wild type), O14763 M152A (protein)
# chain: B1 chain with A97R, A98K
# B5: Human TRAIL-R2-Fc fusion protein (wild type), O14763 R154A (protein)
# chain: B1 chain with A95M, A98K
# Target: T1, Recombinant UL141 ectodomain (soluble, …)
# Assay: SPR
# Settings: chain shown with the change
row,Binder,Kd [nM]
1,B1,7
2,B2,8
3,B3,8
4,B4,7
5,B5,6
